Among the data in patent US5770717 are degree of enhancement of activation (beta-galactosidase assay) values, retold here.

The experiment addresses activation domain-fused yeast RPB4 protein (RPB4 in JG4-5) (yeast (Saccharomyces cerevisiae)) (UniProt P20433). Kind of experiment: two-hybrid interaction trap in yeast, beta-galactosidase assay with and without activation domain-fused RPB4.

Turning to “LexA-RPB7 fusion protein (yeast RPB7) (from UniProt P34087)”, the degree of enhancement of activation (beta-galactosidase assay) was 60 fold.
